According to PMC4655273, “Schwann Cell Expressed Nogo-B Modulates Axonal Branching of Adult Sensory Neurons Through the Nogo-B Receptor NgBR” (Frontiers in Cellular Neuroscience, 2015):

Molecular target: T1, Nogo-B (mouse (endogenous in primary Schwann …, UniProt Q99P72-5 1-356))
T1 sequence (looked up): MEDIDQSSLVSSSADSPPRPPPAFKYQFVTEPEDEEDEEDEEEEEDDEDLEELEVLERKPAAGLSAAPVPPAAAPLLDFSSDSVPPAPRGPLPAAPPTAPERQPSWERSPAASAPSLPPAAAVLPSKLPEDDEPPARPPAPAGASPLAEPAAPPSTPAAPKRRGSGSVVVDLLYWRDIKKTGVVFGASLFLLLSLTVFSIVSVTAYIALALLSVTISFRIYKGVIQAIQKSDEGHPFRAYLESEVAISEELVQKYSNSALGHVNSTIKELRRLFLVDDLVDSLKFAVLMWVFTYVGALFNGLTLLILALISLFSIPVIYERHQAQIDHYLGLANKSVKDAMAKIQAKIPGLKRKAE
Experiment: cell-based or functional assay

B1: Nogo-B receptor NgBR (receptor, mouse (endogenous in sensory neurons), UniProt Q99LJ8 1-297, looked up)
chain: MTGLYELVWRVLHALLCLHLTLTSWLRVRFGTWNWIWRRCCRAASAAVLAPLGFTLRKPRAVGRNRRHHRHPHGGPGPGPGPAATHPRLRWRADVRSLQKLPVHMGLLVTEEVQEPSFSDIASLVVWCMAVGISYISVYDHQGIFKRNNSRLMDEILKQQQELLGQDCSKYSAEFANSNDKDDQDLNCPSAVKVLSPEDGKADIVRAAQDFCQLVAQQQRKPTDLDVDLLGSLLSSHGFPDPDLVLKFGPVDSTLGFLPWQIRLTEIVSLPSHLNISYEDFFSALRQYAACEQRLGK
Q: B1 was tested. Which “total neurite length (TNL) of adult wildtype sensory neurons on wildtype Schwann cells with recombinant NgBR-Ecto at 1 μg/ml, relative to control (set to 1.0)” value did it give?
A: 0.74 relative to the control levels
